Tested on: MS2 coat protein
Test: apparent KD of MS2 coat protein; designed switch direction (-1 OFF switch, 1 ON switch): -1; higher = weaker reporter binding
How it was run: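 The apparent KD reported per design is the median over clusters of curve fits to normalised cluster fluorescence. The RNA switches were transcribed on Illumina chips by stalled E. coli RNA polymerase. SNAP-549-labelled MS2 coat protein was titrated from 0.7 or 1.5 nM, doubling up to 3 µM, in Tris-HCl pH 7.5 buffer containing KCl, MgCl2, BSA, DTT, tRNA and Tween-20, with no input, 200 uM small-molecule ligand, or an oligonucleotide input.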

[1] = Eterna round: R95, input ligand: FMN 200 uM
[2] = Eterna round: R95, input ligand: microRNA oligo, concentration not stated
[3] = Eterna round: R95, input ligand: none
[4] = input ligand: microRNA oligo, concentration not stated

Sequence	apparent KD of MS2 coat protein [1] [nM]	apparent KD of MS2 coat protein [2] [nM]	apparent KD of MS2 coat protein [3] [nM]	apparent KD of MS2 coat protein (input ligand: FMN 200 uM) [nM]	apparent KD of MS2 coat protein (input ligand: none) [nM]	apparent KD of MS2 coat protein [4] [nM]
GGUUGGCGAGGAUAUACAUGAGGAUCACCCAUGUGAGAAAUAAAAGUGAGGAAGAAAAGUAGAAGGCGCUGACG [Mat - Exclusion 3 - Mod of Salish D3] (puzzle: Exclusion 3)	188	50.4	83.9			
GGUUGGCGAGGAUAUACAUGAGGAUCACCCAUGUGAGAGAAAAAAGUGAGGAAGAAACGUAGAAGGCGCUGACG [salish99_ex3_r3_037] (puzzle: Exclusion 3)	42.6	34.2	45.2			
GUAAACGUAUAGGAUAUUUCAGGUCAAAGCUGCAAAGAAGGAUACACAUGAGGAUCACCCAUGUGGUCAAUAAA [Mod of Quesina 23 - Jieux - Exclusion 6] (Eterna round: R97, puzzle: Exclusion 6)				42.2	20.4	
GUAAAUCAUGUAGGAUAUGCGUGGCGAAGCUAUGCAGAAGGACAUGAGGAUCACCCAUGUGCUUGCGUCCGCGUACGGAUGCAA [Mat - Exclusion NG 1 - Mod of JL - D70] (Eterna round: R96, puzzle: Exclusion NG 1)				292	237	124
GUAACAUGCUGGUGAUCAUACAUGAGGAUCACCCAUGUAACAAGCUUUUUGCUCGUCUUAAUUUAAUUGAUUACUAG [Stov1/8-A2] (Eterna round: R97, puzzle: Sensor, turn-off variant 1)				137	106	
GUACCCAAAGGAUAUACUUGAGGAUCACCCAAGUAUGUCGCUUGGGCACGGUAAAGGAGUAGAAGGUUGGGAAG [Aedti] (Eterna round: R97, puzzle: Exclusion 3)				12.5	11.8	
GUACUGAAGCUUUGCUUUAGUCGUACAUGAGGAUCACCCAUGUAGGAUAUGGUAGGCUUUGCUUACUAGAAGGAUAGAGUGAUC [JL EXNG3 1.27] (Eterna round: R96, puzzle: Exclusion NG 3)				81.7	119	31.7
GUAGAGUAAGGAUAUACUGAAUAGGAUAGAAUGGUUAGAAAGUAGAAGGUACAUGAGGAUCACCCAUGUAAUGU [Excluse me!!!! 19 - Jieux - Exclusion 4] (Eterna round: R96, puzzle: Exclusion 4)				20.9	24	18.6
GUAGAGUAAGGAUAUACUGAAUAGGAUAGAAUGGUUAGAAAGUAGAAGGUACAUGAGGAUCACCCAUGUAAUGU [Excluse me!!!! 19 - Jieux - Exclusion 4] (puzzle: Exclusion 4)		20.4				
GUAGAGUCAGGAUAUACAAGAUCGAUAGAUCGGCGAUCCAUACAUGAGGAUCACCCAUGUAGAAGGGACUCUAC [Mat - Exclusion 2 - Eli Mod - D3] (Eterna round: R97, puzzle: Exclusion 2)				693	40.2	
GUAGAGUCAGGAUAUACGAGAUCGAAAGAUCGGCGAUCCAUACAUGAGGAUCACCCAUGUAGAAGGGACUCUAC [ChP 11-04-2015 #5] (Eterna round: R96, puzzle: Exclusion 2)				177	19.1	14.8
GUAGAGUCAGGAUAUACGAGAUCGAAAGAUCGGCGAUCCAUACAUGAGGAUCACCCAUGUAGAAGGGACUCUAC [ChP 11-04-2015 #5] (puzzle: Exclusion 2)		14.2				
GUAGAGUGAGGAUAUACAAGAUCGAAAGAUCGGCGAUCCAUACAUGAGGAUCACCCAUGUAGAAGGCACUCUAC [Eli x2 4.007] (Eterna round: R97, puzzle: Exclusion 2)				678	102	
GUAGGGUCAGGAUAUACGGGCGGGAGGAUGUAUUGUAGUUGGUAGAAGGGACAUGAGGAUCACCCAUGUGAGAA [JR_Exclu4_Sub054] (puzzle: Exclusion 4)		31				
GUAUGUAACUAGGAUAUCAGCAUACUUCAAUGUUGAGAAGGAGUUACAUGAGGAUCACCCAUGUAUCCAACAUG [Exclusion 6 - 3:b] (puzzle: Exclusion 6)	43.4	52.5	69.1			
GUCACAUGGGUAUAGGAUCACAUGAGGAUCACCCAUGUGACUAACAAGCUUUUUGCUCGUCUUAUGUCUAUGUGAAG [Stov1/18-A1] (Eterna round: R97, puzzle: Sensor, turn-off variant 1)				42.9	26.9	

Reference: the supplement of paper PMC9170038
